Data on two molecules can be found in doi:10.1101/580043 (bioRxiv, 2019).

Assay [1] addresses MBP-tagged PRG-1 PIWI domain (C. elegans). Briefly: MST.
Assay [2] concerns the target T1, Recombinant full-length MBP-tagged PRG-1 (C. elegans, UniProt P90786 1-824).
T1 sequence (looked up): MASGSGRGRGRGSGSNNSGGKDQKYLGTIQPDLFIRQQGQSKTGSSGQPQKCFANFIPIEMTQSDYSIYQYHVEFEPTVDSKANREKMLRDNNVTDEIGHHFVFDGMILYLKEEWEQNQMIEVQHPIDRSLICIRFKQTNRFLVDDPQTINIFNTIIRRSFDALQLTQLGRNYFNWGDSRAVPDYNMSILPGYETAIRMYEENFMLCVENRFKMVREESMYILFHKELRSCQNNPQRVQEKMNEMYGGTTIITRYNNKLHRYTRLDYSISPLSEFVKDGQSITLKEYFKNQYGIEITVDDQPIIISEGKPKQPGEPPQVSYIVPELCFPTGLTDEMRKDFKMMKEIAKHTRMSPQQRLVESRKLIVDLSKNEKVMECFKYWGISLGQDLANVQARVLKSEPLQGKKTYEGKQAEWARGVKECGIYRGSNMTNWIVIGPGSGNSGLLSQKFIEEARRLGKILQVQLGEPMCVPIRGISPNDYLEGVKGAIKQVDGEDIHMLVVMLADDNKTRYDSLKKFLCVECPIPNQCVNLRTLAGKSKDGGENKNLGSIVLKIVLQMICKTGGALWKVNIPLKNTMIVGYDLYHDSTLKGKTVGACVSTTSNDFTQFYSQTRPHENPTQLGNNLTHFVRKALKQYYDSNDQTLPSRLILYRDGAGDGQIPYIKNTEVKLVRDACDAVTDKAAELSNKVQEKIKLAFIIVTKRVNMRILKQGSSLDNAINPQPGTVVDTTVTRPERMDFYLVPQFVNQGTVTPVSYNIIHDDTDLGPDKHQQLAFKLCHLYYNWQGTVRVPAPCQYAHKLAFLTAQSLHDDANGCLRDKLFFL
Briefly: MST.

Where no end group is shown, it is not given here.

The Kd is the equilibrium constant for the complex coming apart. In assay [1], NFDNIEEAKNLERRSKIPLKFGEVILWNESDCDHDKRIIL (also: labelled with atto-488 NHS ester, site not given here) [DEPS-1 PBS motif peptide] displayed a Kd of 1.9 µM.

B1: Recombinant full-length MBP-tagged DEPS-1 (natural protein, C. elegans, UniProt Q9N303 1-619, looked up)
chain: MSERQSKYFDYQGIVISSTGQDNQDSETDLVYLIQAHGKAAPKNIMYGVSKCAFVPTNLERNFDNIEEAKNLERRSKIPLKFGEVILWNESDCDHDKRIILHIKREKPIYEASSSRNGLILKVGGVIQPTSTTSFWTPLCTVTMPETEATRAEPDVWLYAWIRFETTMKSGLDPFNMTATFESFDSCDPSDQARVCEAPWNAGSPDSKFGVWRPDPKPADSDDEIDIEPREGWHLPEDKWAEVIKMQLGLYVGERLLICKELSQFDFIIPLQKPFSRGTDKTLIYPAVGEYFHFSAIWSMQHNGFLIYELQPVPLLRQHVTSVNGNLLTRVVPASIRGLFVDKEGTLGLIDDPHHLLSFFEFHPAGYEFLKAMAEVRAVRTSENKSVRYRIVRTSGMSIFENWLRDTQFVVGPVKGIRINEDTVICAKHPNVYFKIPNNLKEGIPIGGGVQFVGKRQAGVDSEIMITECSPCPAFTCKNYSVSGDTRLFQVYLKPNCDHEQLAESDSMGFVDFRELETPCRGKFLAWVRESITVNDCRRAATIMEVCSTAICPPLIAMSANSSRATSARTTPAGSSIGSRSSIQSRASAATSVSSNRFVGPSSRRTPSGTPQSSTSSRV
modifications: labelled with atto-488 NHS ester
As for B1, the Kd in assay [2] came to 0.855 µM.
